Source: patent US20050164323

Columns and labels:
[1] = biological target: T1, AFRRTSLAGGG (SEQ ID NO: 44)
T1 chain: AFRRTSLAGGG

[2] = biological target: T2, AKIQASFRGHM (SEQ ID NO: 20)
T2 chain: AKIQASFRGHM

[3] = biological target: T3, ALGKRTAKYRW (SEQ ID NO: 45)
T3 chain: ALGKRTAKYRW

[4] = biological target: T4, APKRGSILSKP (SEQ ID NO: 35)
T4 chain: APKRGSILSKP

[5] = biological target: T5, ATFKKTFKHLL (SEQ ID NO: 24)
T5 chain: ATFKKTFKHLL

[6] = biological target: T6, DIKRLTPRFTL (SEQ ID NO: 34)
T6 chain: DIKRLTPRFTL

[7] = biological target: T7, EEPVLTLVDEA (SEQ ID NO: 41)
T7 chain: EEPVLTLVDEA

[8] = biological target: T8, ETKKQSFKQTG (SEQ ID NO: 33)
T8 chain: ETKKQSFKQTG

[9] = biological target: T9, FARKGSLRQKN (SEQ ID NO: 6)
T9 chain: FARKGSLRQKN

[10] = biological target: T10, GKRRPSRLVAL (SEQ ID NO: 58)
T10 chain: GKRRPSRLVAL

[11] = biological target: T11, GTFRSSIRRLS (SEQ ID NO: 49)
T11 chain: GTFRSSIRRLS

[12] = biological target: T12, ITRKRSGEAAV (SEQ ID NO: 40)
T12 chain: ITRKRSGEAAV

[13] = biological target: T13, IYRASYYRKGG (SEQ ID NO: 27)
T13 chain: IYRASYYRKGG

[14] = biological target: T14, KAFRDTFRLLL (SEQ ID NO: 22)
T14 chain: KAFRDTFRLLL

[15] = biological target: T15, KFRTPSFLKKS (SEQ ID NO: 26)
T15 chain: KFRTPSFLKKS

[16] = biological target: T16, KIQASFRGHMA (SEQ ID NO: 18)
T16 chain: KIQASFRGHMA

… (SEQ ID NO: 16) = biological target: T17, … (SEQ ID NO: 16)
T17 chain: KKRFSFKKSFK

[17] = biological target: T18, KPFKLSGLSFK (SEQ ID NO: 43)
T18 chain: KPFKLSGLSFK

[18] = biological target: T19, KRRQISIRGIV (SEQ ID NO: 47)
T19 chain: KRRQISIRGIV

[19] = biological target: T20, KTRKISQSAQT (SEQ ID NO: 52)
T20 chain: KTRKISQSAQT

[20] = biological target: T21, KTRRLSAFQQG (SEQ ID NO: 28)
T21 chain: KTRRLSAFQQG

[21] = biological target: T22, LMRRNSVTPLA (SEQ ID NO: 39)
T22 chain: LMRRNSVTPLA

[22] = biological target: T23, LRQLRSPRRTQ (SEQ ID NO: 51)
T23 chain: LRQLRSPRRTQ

[23] = biological target: T24, LSRTLSVAAKK (SEQ ID NO: 19)
T24 chain: LSRTLSVAAKK

[24] = biological target: T25, MRRSKSPADSA (SEQ ID NO: 37)
T25 chain: MRRSKSPADSA

[25] = biological target: T26, MYHNSSQKRH (SEQ ID NO: 36)
T26 chain: MYHNSSQKRH

[26] = biological target: T27, MYRRSYVFQT (SEQ ID NO: 30)
T27 chain: MYRRSYVFQT

[27] = biological target: T28, NKRRATLPHPG (SEQ ID NO: 53)
T28 chain: NKRRATLPHPG

[28] = biological target: T29, NKRRGSVPILR (SEQ ID NO: 57)
T29 chain: NKRRGSVPILR

[29] = biological target: T30, NSRRPSRATWL (SEQ ID NO: 55)
T30 chain: NSRRPSRATWL

[30] = biological target: T31, PKRPGSVHRTP (SEQ ID NO: 23)
T31 chain: PKRPGSVHRTP

[31] = biological target: T32, Peptide 1 (FARKGSLRQ), substrate, pseudo-substrate PKC alpha
T32 chain: FARKGSLRQ

[32] = biological target: T33, Peptide 3 (LKRSLSEM), substrate, Serum Response Factor
T33 chain: LKRSLSEM

[33] = biological target: T34, Peptide 4 (RTPKLARQASIELPSM), substrate, lymphocyte-specific protein 1
T34 chain: RTPKLARQASIELPSM

[34] = biological target: T35, QAWSKTTPRRI (SEQ ID NO: 31)
T35 chain: QAWSKTTPRRI

[35] = biological target: T36, QKKRVSMILQS (SEQ ID NO: 59)
T36 chain: QKKRVSMILQS

[36] = biological target: T37, QKRPSQRSKYL (SEQ ID NO: 17)
T37 chain: QKRPSQRSKYL

[37] = biological target: T38, RGFLRSASLGR (SEQ ID NO: 32)
T38 chain: RGFLRSASLGR

[38] = biological target: T39, RGRSRSAPPNL (SEQ ID NO: 29)
T39 chain: RGRSRSAPPNL

[39] = biological target: T40, RLRRLTAREAA (SEQ ID NO: 56)
T40 chain: RLRRLTAREAA

[40] = biological target: T41, RVVGGSLRGAQ (SEQ ID NO: 50)
T41 chain: RVVGGSLRGAQ

[41] = biological target: T42, SPLRHSFQKQQ (SEQ ID NO: 25)
T42 chain: SPLRHSFQKQQ

[42] = biological target: T43, SQKRPSQRHGS (SEQ ID NO: 42)
T43 chain: SQKRPSQRHGS

… (SEQ ID NO: 54) = biological target: T44, … (SEQ ID NO: 54)
T44 chain: SYTRFSLARQV

[43] = biological target: T45, TRSKGTLRYMS (SEQ ID NO: 38)
T45 chain: TRSKGTLRYMS

[44] = biological target: T46, VAKRESRGLKS (SEQ ID NO: 21)
T46 chain: VAKRESRGLKS

[45] = biological target: T47, VVRTDSLKGRR (SEQ ID NO: 46)
T47 chain: VVRTDSLKGRR

[46] = biological target: T48, WPWQVSLRTRF (SEQ ID NO: 48)
T48 chain: WPWQVSLRTRF

B1: PKC-θ kinase domain (PKC-θ KD; amino acid residues 362 to 706), C-terminal hexa-histidine tag, expressed in E. coli (protein)
chain: MGPELNKERPSLQIKLKIEDFILHKMLGKGSFGKVFLAEFKKTNQFFAIKALKKDVVLMDDDVECTMVEKRVLSLAWEHPFLTHMFCTFQTKENLFFVMEYLNGGDLMYHIQSCHKFDLSRATFYAAEIILGLQFLHSKGIVYRDLKLDNILLDKDGHIKIADFGMCKENMLGDAKTNTFCGTPDYIAPEILLGQKYNHSVDWWSFGVLLYEMLIGQSPFHGQDEEELFHSIRMDNPFYPRWLEKEAKDLLVKLFVREPEKRLGVRGDIRQHPLFREINWEELERKEIDPPFRPKVKSPFDCSNFDKEFLNEKPRLSFADRALINSMDQNMFRNFSFMNPGMERLISHHHHHH
- phosphorylation of the peptide spot (32P, peptide array) [1]: shown to be substrates for PKC-θ
- phosphorylation of the peptide spot (32P, peptide array) [2]: shown to be substrates for PKC-θ
- phosphorylation of the peptide spot (32P, peptide array) [3]: shown to be substrates for PKC-θ
- phosphorylation of the peptide spot (32P, peptide array) [4]: shown to be substrates for PKC-θ
- phosphorylation of the peptide spot (32P, peptide array) [5]: shown to be substrates for PKC-θ
- phosphorylation of the peptide spot (32P, peptide array) [6]: shown to be substrates for PKC-θ
- phosphorylation of the peptide spot (32P, peptide array) [7]: shown to be substrates for PKC-θ
- phosphorylation of the peptide spot (32P, peptide array) [8]: shown to be substrates for PKC-θ
- phosphorylation of the peptide spot (32P, peptide array) [9]: shown to be substrates for PKC-θ
- phosphorylation of the peptide spot (32P, peptide array) [10]: shown to be substrates for PKC-θ
- phosphorylation of the peptide spot (32P, peptide array) [11]: shown to be substrates for PKC-θ
- phosphorylation of the peptide spot (32P, peptide array) [12]: shown to be substrates for PKC-θ
- phosphorylation of the peptide spot (32P, peptide array) [13]: shown to be substrates for PKC-θ
- phosphorylation of the peptide spot (32P, peptide array) [14]: shown to be substrates for PKC-θ
- phosphorylation of the peptide spot (32P, peptide array) [15]: shown to be substrates for PKC-θ
- phosphorylation of the peptide spot (32P, peptide array) [16]: shown to be substrates for PKC-θ
- phosphorylation of the peptide spot (32P, peptide array) (… (SEQ ID NO: 16)): shown to be substrates for PKC-θ
- phosphorylation of the peptide spot (32P, peptide array) [17]: shown to be substrates for PKC-θ
- phosphorylation of the peptide spot (32P, peptide array) [18]: shown to be substrates for PKC-θ
- phosphorylation of the peptide spot (32P, peptide array) [19]: shown to be substrates for PKC-θ
- phosphorylation of the peptide spot (32P, peptide array) [20]: shown to be substrates for PKC-θ
- phosphorylation of the peptide spot (32P, peptide array) [21]: shown to be substrates for PKC-θ
- phosphorylation of the peptide spot (32P, peptide array) [22]: shown to be substrates for PKC-θ
- phosphorylation of the peptide spot (32P, peptide array) [23]: shown to be substrates for PKC-θ
- phosphorylation of the peptide spot (32P, peptide array) [24]: shown to be substrates for PKC-θ
- phosphorylation of the peptide spot (32P, peptide array) [25]: shown to be substrates for PKC-θ
- phosphorylation of the peptide spot (32P, peptide array) [26]: shown to be substrates for PKC-θ
- phosphorylation of the peptide spot (32P, peptide array) [27]: shown to be substrates for PKC-θ
- phosphorylation of the peptide spot (32P, peptide array) [28]: shown to be substrates for PKC-θ
- phosphorylation of the peptide spot (32P, peptide array) [29]: shown to be substrates for PKC-θ
- phosphorylation of the peptide spot (32P, peptide array) [30]: shown to be substrates for PKC-θ
- (kcat/Km)^η, slope of the solvent microviscosity effect, 250 mM NaCl [31]: the slope had a (kcat/Km)^η value of 0.86 in 250 mM NaCl
- kcat/Km [31]: 2.7e+06 M⁻¹ s⁻¹
- kcat [32]: 21 s⁻¹
- kcat/Km [32]: 51000 M⁻¹ s⁻¹
- kcat [33]: 14 s⁻¹
- kcat/Km [33]: 58000 M⁻¹ s⁻¹
- phosphorylation of the peptide spot (32P, peptide array) [34]: shown to be substrates for PKC-θ
- phosphorylation of the peptide spot (32P, peptide array) [35]: shown to be substrates for PKC-θ
- phosphorylation of the peptide spot (32P, peptide array) [36]: shown to be substrates for PKC-θ
- phosphorylation of the peptide spot (32P, peptide array) [37]: shown to be substrates for PKC-θ
- phosphorylation of the peptide spot (32P, peptide array) [38]: shown to be substrates for PKC-θ
- phosphorylation of the peptide spot (32P, peptide array) [39]: shown to be substrates for PKC-θ
- phosphorylation of the peptide spot (32P, peptide array) [40]: shown to be substrates for PKC-θ
- phosphorylation of the peptide spot (32P, peptide array) [41]: shown to be substrates for PKC-θ
- phosphorylation of the peptide spot (32P, peptide array) [42]: shown to be substrates for PKC-θ
- phosphorylation of the peptide spot (32P, peptide array) (… (SEQ ID NO: 54)): shown to be substrates for PKC-θ
- phosphorylation of the peptide spot (32P, peptide array) [43]: shown to be substrates for PKC-θ
- phosphorylation of the peptide spot (32P, peptide array) [44]: shown to be substrates for PKC-θ
- phosphorylation of the peptide spot (32P, peptide array) [45]: shown to be substrates for PKC-θ
- phosphorylation of the peptide spot (32P, peptide array) [46]: shown to be substrates for PKC-θ
